# Measurements taken from article PMC4190070 (Nature structural & molecular biology, 2014).
# T1: SA2–Scc1 cohesin subcomplex (SA2 80–1060, Scc1 281–420), purified recombinant (human, UniProt Q8N3U4;O60216)
# T1 sequence 1: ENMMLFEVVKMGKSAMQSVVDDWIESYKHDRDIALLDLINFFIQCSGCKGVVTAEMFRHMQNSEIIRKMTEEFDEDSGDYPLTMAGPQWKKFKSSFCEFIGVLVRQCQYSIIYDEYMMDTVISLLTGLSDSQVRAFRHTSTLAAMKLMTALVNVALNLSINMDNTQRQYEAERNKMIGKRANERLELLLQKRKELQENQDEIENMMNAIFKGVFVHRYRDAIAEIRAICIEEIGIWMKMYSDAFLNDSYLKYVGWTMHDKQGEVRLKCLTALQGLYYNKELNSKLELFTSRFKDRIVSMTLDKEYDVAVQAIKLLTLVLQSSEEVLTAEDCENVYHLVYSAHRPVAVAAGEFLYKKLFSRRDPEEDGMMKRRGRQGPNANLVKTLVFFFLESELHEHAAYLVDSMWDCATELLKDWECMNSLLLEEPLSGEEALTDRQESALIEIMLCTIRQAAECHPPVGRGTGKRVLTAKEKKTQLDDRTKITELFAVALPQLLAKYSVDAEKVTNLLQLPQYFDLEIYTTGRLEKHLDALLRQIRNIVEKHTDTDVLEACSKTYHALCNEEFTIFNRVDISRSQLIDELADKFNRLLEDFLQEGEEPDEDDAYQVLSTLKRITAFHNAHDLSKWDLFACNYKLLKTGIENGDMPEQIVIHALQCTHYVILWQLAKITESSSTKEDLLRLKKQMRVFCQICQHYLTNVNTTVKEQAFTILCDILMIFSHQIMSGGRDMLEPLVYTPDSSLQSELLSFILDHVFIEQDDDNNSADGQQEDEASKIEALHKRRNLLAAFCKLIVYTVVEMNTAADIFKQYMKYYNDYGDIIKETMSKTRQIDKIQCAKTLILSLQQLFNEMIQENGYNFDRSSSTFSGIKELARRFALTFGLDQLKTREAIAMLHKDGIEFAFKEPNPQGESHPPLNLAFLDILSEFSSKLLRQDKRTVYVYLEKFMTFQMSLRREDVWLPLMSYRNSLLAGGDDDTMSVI
# T1 sequence 2: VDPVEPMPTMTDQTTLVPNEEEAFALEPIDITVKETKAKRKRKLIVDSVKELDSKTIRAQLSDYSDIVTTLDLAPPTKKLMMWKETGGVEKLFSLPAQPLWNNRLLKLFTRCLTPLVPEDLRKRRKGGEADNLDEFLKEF
# Target: T1, SA2–Scc1 cohesin subcomplex (SA2 …)
# Test: ITC
binder,measurement,value
KSENKKTVPQKKMHKSVSSNDAYNFNLEEGVHLTPFRQKVSC [unphosphorylated Sgo1 peptide (residues 313–353)],Kd,618 nM
same,stoichiometry N,1
